Source: paper PMC7565984, “A Phosphorylation-Induced Switch in the Nuclear Localization Sequence of the Intrinsically Disordered NUPR1 Hampers Binding to Importin” (Biomolecules, 2020)
Blank lines part the entries; values can stand above or below the molecule they belong to. Where a SMILES comes first, the peptide text is derived from it. [ ]: non-standard residue; d: D form. pT = C[C@@H](OP(=O)(O)O)[C@H](N)C(=O)O

How the values were obtained:
[1] = biological target: T1, ΔImpα3 (importin α3 without the IBB domain, residues 64-521) (Homo sapiens, UniProt O00629); experiment: ITC binding of NLS-NUPR1 peptides / NUPR1 to ΔImpα3; conditions: ITC, 298 K, Tris 50 mM pH 8; for ΔH (binding enthalpy), ΔImpα3: absolute error 0.5 kcal/mol; for −TΔS (entropic contribution), ΔImpα3: calculated from Kd and ΔH, absolute error 0.7 kcal/mol
T1 construct: The His-tagged ΔImpα3 (residues 64-521) was obtained from BL21 (DE3) cells as described; His-tag; made in house; host or cells: Escherichia coli BL21 (DE3)
T1 sequence (O00629 64-521): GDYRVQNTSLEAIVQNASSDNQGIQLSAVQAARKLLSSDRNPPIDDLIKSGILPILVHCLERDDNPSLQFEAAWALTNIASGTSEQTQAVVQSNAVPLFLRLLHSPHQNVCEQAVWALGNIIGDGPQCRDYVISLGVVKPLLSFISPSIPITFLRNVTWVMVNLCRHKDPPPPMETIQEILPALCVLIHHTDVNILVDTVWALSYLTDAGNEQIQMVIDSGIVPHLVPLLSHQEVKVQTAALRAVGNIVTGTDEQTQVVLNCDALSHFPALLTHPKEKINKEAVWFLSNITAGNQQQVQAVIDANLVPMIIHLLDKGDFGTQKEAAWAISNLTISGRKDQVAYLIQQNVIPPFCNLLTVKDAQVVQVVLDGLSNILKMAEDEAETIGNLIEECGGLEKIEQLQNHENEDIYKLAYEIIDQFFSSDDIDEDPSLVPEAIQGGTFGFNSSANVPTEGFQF
Procedure: (§1) The experimental set-up and data processing of ITC experiments has been described previously. Calorimetric titrations, performed in an Auto-iTC200 calorimeter (MicroCal, Malvern-Panalytical, Malvern, UK) consisted of series of 19 2-μL injections, with 150 s time spacing and a 750-rpm stirring speed. Impα3 or ΔImpα3 (at 10–20 μM) was loaded into the calorimetric cell and NLS-NUPR1 peptides in the syringe (150–300 μM); all solutions were prepared in buffer Tris 50 mM, pH 8. […] The binding affinity (association constant) and the binding enthalpy were estimated through a least-squares nonlinear regression data analysis, from which the Gibbs energy and the entropic contribution to the binding were calculated using well-known thermodynamic relationships. Since the binding stoichiometry is constrained by the model, the parameter n provides a fraction of the active or binding competent protein. Experiments for each peptide and importin species were performed, at least, in duplicates.

[2] = biological target: T2, human importin α3 (Impα3) (Homo sapiens, UniProt O00629); experiment: ITC binding of NLS-NUPR1 peptides / NUPR1 to Impα3; conditions: ITC, 298 K, Tris 50 mM pH 8; for ΔH (binding enthalpy), Impα3: absolute error 0.5 kcal/mol
T2 construct: although the IBB region maintains its independence within the whole Impα3 in terms of conformation; His-tag (N); made in house; host or cells: Escherichia coli BL21 (DE3)
T2 sequence (O00629 1-521): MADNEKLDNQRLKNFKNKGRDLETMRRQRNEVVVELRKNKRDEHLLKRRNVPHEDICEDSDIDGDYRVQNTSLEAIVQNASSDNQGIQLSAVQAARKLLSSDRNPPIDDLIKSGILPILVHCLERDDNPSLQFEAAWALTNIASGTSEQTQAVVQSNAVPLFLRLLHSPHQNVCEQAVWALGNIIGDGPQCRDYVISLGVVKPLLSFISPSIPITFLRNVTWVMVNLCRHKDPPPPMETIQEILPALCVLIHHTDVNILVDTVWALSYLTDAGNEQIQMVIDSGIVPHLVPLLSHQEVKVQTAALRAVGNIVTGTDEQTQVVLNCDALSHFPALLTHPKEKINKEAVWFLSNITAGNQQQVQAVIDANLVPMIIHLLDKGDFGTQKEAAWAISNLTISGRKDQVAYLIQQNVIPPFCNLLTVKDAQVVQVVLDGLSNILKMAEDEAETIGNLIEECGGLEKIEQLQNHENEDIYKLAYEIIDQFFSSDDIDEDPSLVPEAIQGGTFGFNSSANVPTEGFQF
Procedure: as §1

[3] = Translational diffusion by NMR DOSY (hydrodynamic properties); assay type: physicochemical; conditions: for D, translational diffusion coefficient: 283 K, pH 7.2, 50-mM deuterated Tris, 100% D2O, peptide 120 μM; for Rh, hydrodynamic radius from D: from the translational diffusion coefficient of dioxane (Rh = 2.12 Å) added to each sample
Procedure: Concentrations of peptides in all DOSY experiments were 120 μM, and 128 scans, where the gradient strength was varied, were acquired for each curve. Translational self-diffusion measurements were performed with the pulsed gradient spin-echo sequence in the presence of 100% D2O. Experimental details have been described elsewhere. Briefly, the gradient strength was varied in sixteen linear steps between 2% and 95% of the total power of the gradient coil. The gradient strength was previously calibrated by using the value of the translational diffusion coefficient, D, for the residual proton water line in a sample containing 100% D2O in a 5-mm tube [34]. In our experiments for each peptide, the duration of the gradient was 2.25 ms, the time between the two pulse gradients in the pulse sequence was set to 200 ms, and the recovery delay between the bipolar gradients was set to 100 μs. The methyl groups with signals between 1.0 and 0.80 ppm were used for integration. Fitting of the exponential curves obtained from experimental data was carried out with KaleidaGraph (Synergy Software, Version 3.5), as described. A final concentration of 1% of dioxane, which was assumed to have a hydrodynamic radius Rh = 2.12 Å [34], was added to the solutions of each of the peptides to have a comparison for estimating their sizes.

[4] = biological target: T3, human importin α3 (intact, with the IBB domain) (human, UniProt O00629 1-521); experiment: ITC; Impα3 or ΔImpα3 (10–20 μM) in the cell, NLS-NUPR1 peptide (150–300 μM) in the syringe; Tris 50 mM, pH 8; 298 K; single ligand binding site (1:1) model, n gives the fraction of binding-competent protein; conditions: both partners purified
T3 construct: human importin α3 (KPNA4), intact protein with the IBB domain; codon-optimized synthetic DNA in the vector pHTP1; also called Impα3; KPNA4; source: E. coli BL21 (DE3), purified (as for ΔImpα3)
T3 sequence (looked up): T2 sequence (O00629 1-521)

[5] = biological target: T4, truncated importin α3 without the IBB domain (residues 64-521) (human, UniProt O00629 64-521); experiment: as above; conditions: both partners purified
T4 construct: human importin α3 (KPNA4) without the IBB domain, residues 64-521; also called ΔImpα3; ΔImportin
T4 sequence (looked up): T1 sequence (O00629 64-521)

Molecule: CC(=O)N[C@@H](Cc1ccc(O)cc1)C(=O)N[C@H](C(=O)N[C@@H](CC(N)=O)C(=O)N[C@@H](CCCNC(=N)N)C(=O)N1CCC[C@H]1C(=O)N[C@@H](CO)C(=O)N1CCC[C@H]1C(=O)NCC(=O)NCC(=O)N[C@@H](Cc1c[nH]cn1)C(=O)N[C@@H](CCC(=O)O)C(=O)N[C@@H](CCCNC(=N)N)C(=O)N[C@@H](C)C(=O)N[C@@H](CC(C)C)C(=O)N[C@H](C(=O)N[C@@H](CCC(=O)O)C(=O)N[C@@H](C)C(=O)N[C@@H](CC(C)C)C(=O)N[C@@H](CCC(N)=O)C(=O)N[C@@H](CC(N)=O)C(=O)N[C@@H](CO)C(=O)N[C@@H](CCC(=O)O)C(N)=O)C(C)C)[C@@H](C)O [K65AT68EK69A] (Ac-YTNRPSPGGHERALVEALQNSE-NH2)
ΔH (binding enthalpy), ΔImpα3 [1]: -28.5 kcal/mol
−TΔS (entropic contribution), ΔImpα3 [1]: 22.2 kcal/mol
ΔH (binding enthalpy), Impα3 [2]: -16.3 kcal/mol
Kd ([2]; importin 10–20 μM in cell, peptide 150–300 μM in syringe, 1:1 model, at least duplicates, relative error 30%, read-out: Kd (dissociation constant), Impα3): 27 µM
D, translational diffusion coefficient [3]: 2.4 ± 0.2 cm^2 s^−1 × 10^6
Rh, hydrodynamic radius from D [3]: 9 ± 2 Å

Molecule: CC(=O)N[C@@H](Cc1ccc(O)cc1)C(=O)N[C@H](C(=O)N[C@@H](CC(N)=O)C(=O)N[C@@H](CCCNC(=N)N)C(=O)N1CCC[C@H]1C(=O)N[C@@H](CO)C(=O)N1CCC[C@H]1C(=O)NCC(=O)NCC(=O)N[C@@H](Cc1c[nH]cn1)C(=O)N[C@@H](CCC(=O)O)C(=O)N[C@@H](CCCNC(=N)N)C(=O)N[C@@H](C)C(=O)N[C@@H](CC(C)C)C(=O)N[C@H](C(=O)N[C@@H](CCC(=O)O)C(=O)N[C@@H](CCCCN)C(=O)N[C@@H](CC(C)C)C(=O)N[C@@H](CCC(N)=O)C(=O)N[C@@H](CC(N)=O)C(=O)N[C@@H](CO)C(=O)N[C@@H](CCC(=O)O)C(N)=O)C(C)C)[C@@H](C)O [K65AT68E] (Ac-YTNRPSPGGHERALVEKLQNSE-NH2)
ΔH (binding enthalpy), ΔImpα3 [1]: -17.9 kcal/mol
−TΔS (entropic contribution), ΔImpα3 [1]: 11.3 kcal/mol
ΔH (binding enthalpy), Impα3 [2]: -7.8 kcal/mol
−TΔS (entropic contribution), Impα3 ([2]; calculated from Kd and ΔH, absolute error 0.7 kcal/mol): 1.4 kcal/mol
D, translational diffusion coefficient [3]: 1.76 ± 0.06 cm^2 s^−1 × 10^6
Rh, hydrodynamic radius from D [3]: 12 ± 1 Å

B1: wild-type NLS-NUPR1 peptide (residues 54-74 of NUPR1 with an added N-terminal Tyr) (peptide)
peptide: Ac-YTNRPSPGGHERKLVTKLQNSE-NH2
notes: tyrosine introduced at the N terminus for absorbance measurements; not a residue of NUPR1; The added Tyr stands where NUPR1 has residue 53; also called wt; wt peptide; source: synthetic peptide (NZYtech, purity 95%)
Kd [4]: 1.7 µM
dH [4]: 0.8 kcal/mol
stoichiometry N [4]: 0.9
Kd [5]: 0.95 µM
dH [5]: -3.7 kcal/mol
stoichiometry N [5]: 1

B2: NLS-NUPR1 peptide K69A (peptide)
peptide: Ac-YTNRPSPGGHERKLVTALQNSE-NH2
notes: tyrosine introduced at the N terminus for absorbance measurements; not a residue of NUPR1; also called K69A peptide; Lys69Ala; source: synthetic peptide (NZYtech, purity 95%)
Kd [4]: 11 µM
dH [4]: -10.8 kcal/mol
stoichiometry N [4]: 1.3
Kd [5]: 7.6 µM
dH [5]: -21.3 kcal/mol
stoichiometry N [5]: 1.4

B3: NLS-NUPR1 peptide K65AT68EK69A (peptide)
peptide: Ac-YTNRPSPGGHERALVEALQNSE-NH2
notes: tyrosine introduced at the N terminus for absorbance measurements; not a residue of NUPR1; also called K65AT68EK69A peptide; triple mutant; source: synthetic peptide (NZYtech, purity 95%)
dH [4]: -16.3 kcal/mol
Kd [5]: 24 µM
dH [5]: -28.5 kcal/mol

B4: NLS-NUPR1 peptide K65AT68E (peptide)
peptide: Ac-YTNRPSPGGHERALVEKLQNSE-NH2
notes: tyrosine introduced at the N terminus for absorbance measurements; not a residue of NUPR1; also called K65AT68E peptide; source: synthetic peptide (NZYtech, purity 95%)
Kd [4]: 21 µM
dH [4]: -7.8 kcal/mol
Kd [5]: 14 µM
dH [5]: -17.9 kcal/mol

B7: NLS-NUPR1 peptide K65A (peptide)
peptide: Ac-YTNRPSPGGHERALVTKLQNSE-NH2
notes: tyrosine introduced at the N terminus for absorbance measurements; not a residue of NUPR1; also called K65A peptide; Lys65Ala; source: synthetic peptide (NZYtech, purity 95%)
Kd [4]: 3.9 µM
dH [4]: -2.8 kcal/mol
stoichiometry N [4]: 1.4
Kd [5]: 2.7 µM
dH [5]: -10.2 kcal/mol
stoichiometry N [5]: 1.4

The remaining lines, values ahead:

Kd [4]: 17 µM
dH [4]: -7.5 kcal/mol
Kd [5]: 17 µM
dH [5]: -21.2 kcal/mol
B5: NLS-NUPR1 peptide T68EK69A (peptide)
peptide: Ac-YTNRPSPGGHERKLVEALQNSE-NH2
notes: tyrosine introduced at the N terminus for absorbance measurements; not a residue of NUPR1; also called T68EK69A peptide; source: synthetic peptide (NZYtech, purity 95%)

Kd [4]: 22 µM
dH [4]: -11.1 kcal/mol
Kd [5]: 12 µM
dH [5]: -17.5 kcal/mol
B6: NLS-NUPR1 peptide T68E (phospho-mimetic) (peptide)
peptide: Ac-YTNRPSPGGHERKLVEKLQNSE-NH2
notes: tyrosine introduced at the N terminus for absorbance measurements; not a residue of NUPR1; also called T68E peptide; Thr68Glu; source: synthetic peptide (NZYtech, purity 95%)

Kd [4]: 27 µM
dH [4]: -14.8 kcal/mol
Kd [5]: 29 µM
dH [5]: -28.2 kcal/mol
B8: NLS-NUPR1 peptide phosphorylated at Thr68 (peptide)
peptide: Ac-YTNRPSPGGHERKLV[pT]KLQNSE-NH2
SMILES: CC(=O)N[C@@H](Cc1ccc(O)cc1)C(=O)N[C@H](C(=O)N[C@@H](CC(N)=O)C(=O)N[C@@H](CCCNC(=N)N)C(=O)N1CCC[C@H]1C(=O)N[C@@H](CO)C(=O)N1CCC[C@H]1C(=O)NCC(=O)NCC(=O)N[C@@H](Cc1c[nH]cn1)C(=O)N[C@@H](CCC(=O)O)C(=O)N[C@@H](CCCNC(=N)N)C(=O)N[C@@H](CCCCN)C(=O)N[C@@H](CC(C)C)C(=O)N[C@H](C(=O)N[C@H](C(=O)N[C@@H](CCCCN)C(=O)N[C@@H](CC(C)C)C(=O)N[C@@H](CCC(N)=O)C(=O)N[C@@H](CC(N)=O)C(=O)N[C@@H](CO)C(=O)N[C@@H](CCC(=O)O)C(N)=O)[C@@H](C)OP(=O)(O)O)C(C)C)[C@@H](C)O
notes: tyrosine introduced at the N terminus for absorbance measurements; not a residue of NUPR1; Thr68 is printed as pT (phospho-threonine); also called pT68; pT68 peptide; source: synthetic peptide (NZYtech, purity 95%)
